Assay results taken from patent US5998142, “Systematic evolution of ligands by exponential enrichment: chemi-SELEX” (NeXstar Pharmaceuticals, Inc.).

Experiments:
[1] = biological target: bradykinin, N-bromoacetylated (BrBK) (UniProt P01042 P01042:381-389); assay: kobs covalent reaction, APM gel, 0 C, 5 mM MgCl2; conditions: protein: synthetic; tags: synthetic peptide, N-terminal bromoacetyl
Experimental: Reverse transcription and polymerase chain reaction were carried out as reported by Schneider et al., (FASEB, 7, 201 (1993)). […] Reactions to determine $kobs$ values were carried out at 0° C. in reaction buffer (50 mM HEPES, pH 7.0, 5 mM MgCl_2, 150 mM NaCl) at 2 µM GMPS-RNA and 130 µM BrBK, with monitoring at 0, 1, 3, 10, 30, and 90 minutes. GMPS-RNA was denatured at 70° C. for 3 minutes and allowed to slow cool at room temperature prior to dilution to final reaction buffer conditions, transfer to ice, and addition of BrBK. Reactions were quenched on ice with 235 mM sodium thiosulfate and run on a denaturing 7 M urea 8% polyacrylamide APM gel. $kobs$ values were determined as the negative slope of the linear range of data points from plots relating the concentration of unreacted GMPS- RNA vs. time. Round 10 and round 12 pools were used for cloning and sequencing.

[2] = biological target: Rev (HIV-1, UniProt P04618 P04618:1-116); assay: EMSA; covalent complex without UV, resistant to 7M urea PAGE, in presence of human nuclear extract, on ice
Rev, sequence (P04618 whole entry, one chain of several): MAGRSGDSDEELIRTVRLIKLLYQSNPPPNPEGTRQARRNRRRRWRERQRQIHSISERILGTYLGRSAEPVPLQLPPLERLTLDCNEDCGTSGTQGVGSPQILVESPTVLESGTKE
Experimental: Trunc24 (SEQ ID NO:226) photo-independent crosslinking with HIV-1 Rev in the presence of human nuclear extracts was determined as follows: Trunc24 RNA, nuclear extracts, and Rev protein were combined and incubated on ice for 10 min. Samples were mixed 1:1 with 8M urea loading buffer and placed on a 7M urea, 8% polyacrylamide gel for analysis.

[3] = biological target: bradykinin (BK) (UniProt P01042 P01042:381-389); assay: competition; inhibition of reaction of 12.1 with BrBK; +/-60; conditions: tags: native peptide
bradykinin (BK), sequence (P01042 whole entry, looked up, one chain of several): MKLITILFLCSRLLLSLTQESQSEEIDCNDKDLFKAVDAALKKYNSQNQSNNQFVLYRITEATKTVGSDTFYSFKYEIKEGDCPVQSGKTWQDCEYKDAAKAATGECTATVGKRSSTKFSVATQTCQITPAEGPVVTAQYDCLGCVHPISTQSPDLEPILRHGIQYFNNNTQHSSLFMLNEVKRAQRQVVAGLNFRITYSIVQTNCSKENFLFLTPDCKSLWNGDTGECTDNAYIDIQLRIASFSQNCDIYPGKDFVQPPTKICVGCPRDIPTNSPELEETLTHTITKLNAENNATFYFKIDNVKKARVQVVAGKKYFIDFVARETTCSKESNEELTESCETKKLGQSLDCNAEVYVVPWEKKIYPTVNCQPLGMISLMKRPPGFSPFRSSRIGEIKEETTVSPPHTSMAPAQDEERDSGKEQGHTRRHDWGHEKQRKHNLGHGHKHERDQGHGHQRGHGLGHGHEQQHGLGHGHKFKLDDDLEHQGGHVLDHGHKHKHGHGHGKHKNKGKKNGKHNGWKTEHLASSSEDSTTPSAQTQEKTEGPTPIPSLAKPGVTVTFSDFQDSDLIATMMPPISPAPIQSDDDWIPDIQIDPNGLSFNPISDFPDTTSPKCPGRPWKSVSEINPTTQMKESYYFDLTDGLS

[4] = biological target: des-Arg9-bradykinin (UniProt P01042 P01042:381-388, des-Arg9); assay: competition; inhibition of reaction of 12.1 with BrBK; +/-0.5; conditions: tags: peptide analog
des-Arg9-bradykinin, sequence (P01042 whole entry, looked up, change not shown, one chain of several): as the sequence (P01042 whole entry, looked up, one chain of several) above

bradykinin, N-bromoacetylated (BrBK), sequence (P01042 whole entry, looked up, one chain of several): as above

B1: 12.4 (ssRNA)
RNA: GGGAGCUCAGAAUAAACGCUCAACGAAUCAAUGCGCGGAUCUCAGGAUAUUCGUUCGACAUGAGGCCCGGAUCCGGC
modifications: 5'-GMPS
With B1 the activity [1] was 0.0017 s⁻¹.

B2: 12.46 (ssRNA)
RNA: GGGAGCUCAGAAUAAACGCUCAAUGGACACAACUCCAUUCAUCCCGGGACCGCUGUUCGACAUGAGGCCCGGAUCCGGC
modifications: 5'-GMPS
With B2 the activity [1] was 0.00067 s⁻¹.

B3: 12.3 (ssRNA)
RNA: GGGAGCUCAGAAUAAACGCUCAACAUCACAACUUGUUGUCCUGGUCGAUGUCCUUCGACAUGAGGCCCGGAUCCGGC
modifications: 5'-GMPS
Work on B3 yielded an activity [1] of 0.00075 s⁻¹.

B4: 12.6 (ssRNA)
RNA: GGGAGCUCAGAAUAAACGCUCAAGCGGUAACAUGCUGGAUCUCAGGAAACCGCUUCGACAUGAGGCCCGGAUCCGGC
modifications: 5'-GMPS
B4 showed an activity [1] of 0.0022 s⁻¹.

B5: 12.45 (ssRNA)
RNA: GGGAGCUCAGAAUAAACGCUCAAGCGGUAACAUGCUGGAUCUCAGGAAACCGUUUCGACAUGAGGCCCGGAUCCGGC
modifications: 5'-GMPS
Work on B5 yielded an activity [1] of 0.0051 s⁻¹.

B6: 12.14 (ssRNA)
RNA: GGGAGCUCAGAAUAAACGCUCAAACGUCAUUCCGAGUCGGGUUCGUUCCCCGCUUCGACAUGAGGCCCGGAUCCGGC
modifications: 5'-GMPS
Work on B6 yielded an activity [1] of 0.0017 s⁻¹.

B7: Trunc24 (ssRNA)
RNA: GGGGAUUAACAGGCACACCUGUUAACCCU
modifications: 5-iodouracil at all U
B7: binds [2].

B8: 10.28 (ssRNA)
RNA: GGGAGCUCAGAAUAAACGCUCAACGUUUAGGACUCCCCCGUUCGUCGAGCGAAUUCGACAUGAGGCCCGGAUCCGGC
modifications: 5'-GMPS
B8 was tested, and the activity [1] was 0.0018 s⁻¹.

B9: 12.1 (ssRNA)
RNA: GGGAGCUCAGAAUAAACGCUCAAAGCUGUUGGCAGCGCUGGUGAAGGGAUAGGCUUCGACAUGAGGCCCGGAUCCGGC
modifications: 5'-GMPS
For B9, the Ki [3] was 140 µM and the Ki [4] was 2600 µM.

B10: 12.24 (ssRNA)
RNA: GGGAGCUCAGAAUAAACGCUCAACGUCAGCGGAUCUCCAUUGCGUUAUACGGGUUCGACAUGAGGCCCGGAUCCGGC
modifications: 5'-GMPS
B10 was tested, and the activity [1] was 0.00144 s⁻¹.

B11: 12.9 (ssRNA)
RNA: GGGAGCUCAGAAUAAACGCUCAAGUGGAGCUUCGUGACUUGGUCGGAGCCGUGUUCGACAUGAGGCCCGGAUCCGGC
modifications: 5'-GMPS
B11 was tested, and the activity [1] was 0.00128 s⁻¹.

B12: 12.22 (ssRNA)
RNA: GGGAGCUCAGAAUAAACGCUCAAUGCCACUUUUGUUCGGAUCUUAGGAAGGCAUUCGACAUGAGGCCCGGAUCCGGC
modifications: 5'-GMPS
B12 was tested, and the activity [1] was 0.0012 s⁻¹.

B13: 12.47 (ssRNA)
RNA: GGGAGCUCAGAAUAAACGCUCAAUGUGUGAGUGGAUCCGUUCCCCGCCUGGUGUUCGACAUGAGGCCCGGAUCCGGC
modifications: 5'-GMPS
Work on B13 yielded an activity [1] of 0.00149 s⁻¹.
